The text below walks through data of the DeepSol protein solubility set.

A short description of the series: soluble on expression in E. coli; label from the status in PepcDB or PDB records.
Take “MSLNSTFSIVDLETTAPFKEGGHIIQIGISFVKNWKIINNFQTMVNPGVKIPEQIVDLTGIKNEDVENAPYFEDLARMIHDQLSGTVFVAHNVRYDFPYLNGEFARIKMRRLRLEYVDTVQLAQIVFPTMNSYKLDELVSKLGINLPRHHRADQDASATAQLFLKIHEHLQEFPQNTLNNLINHSKSLLGNTETIFQLSKGKRTFPGDRYGPFDIARLKKIDKGQLIKWIEAKKQSSLSKPLPATVLRPRQESFANILQSKITGKNNKIFSVFSRPRFGKTNAYLDLAVKIAAKGYKILIIEENYLRRRSTFQKSQSLFPENKDLFQIPITRKDFVSLDKLADAFLTEDNPSRQLAKLRVISWLLKSRTGNLNEFVNGFPEPLFNFFSDQDSPNKFDYFERSISSYTFPSIAITDLDSFLRTKNEFSREYNLFIFDVDKGVSNLIDMLPFFSKKIILFTQAQSYIKNWYSIRDFSDMNSVILSLGSELKEGHHHHHH”: the “soluble on expression in E. coli” value is reported as “not soluble”.

For the sequence “MSLNSYVLGFKEIDKTKISMVGGKGANLGELSRVAGILIPEGFCVTTEAYKKIIEKSKEFNELLDELSCLRLEDGEKVYEVSKKIRMVIERISIPKDIVEEIDVYLTRLGEKDAYAVRSSATAEDLPTASFAGQQDTYLNIIGKKSILEHISKCWASLFTDRAVIYRLQNGFDHRKVYISVVIQKMIFPKAAGILFTADPVNSNRKVLSIDASFGLGEALVSGLVNADMYKVLSGKITDKKVSKKKLAIYASKDGGTKAQELEIEKQNKQVLTEEQILQLEHIGRSIEEHFSFPQDIEWCLNQDTFYILQSRPITTLYPIPKANDEENHVYISVGHQQMMTDPLKPLGMSLYELTSFGNRFKAGGRLFFDVTQMLASKDSRKMLLNNMEQHDPLMKDALVTIIERDFIKALPSDNGNQSKSNKGVSAGESENQIENNPTIVSDLINKNQASIEELKENIKTKSGLELIDFIRTDVEELKKILSDPQSSAVFMTAINASHWINEKMRDWLGEKNAADILSQSVPNNITSKMGLELLEIADVIRPYPEIIDYLQHVKDDNFLEEIVKFNGGHEVKNAILSYLSKYGMRCSGEIDITRTRLSEKPITLVPMILNNIKNFETGAANIKFQQGKQKALEKEQELLERLKQLPDGEQKAKETKRMIKLIRNFIGYREYPKYGMVNRYFIYKQALMKEAEKLANIGAIHEKEDIYYLTFEELREVIRTKKVDYSIINKRKNEHKLYEKLIPPRVITSDGEIVEGEYKRENVPEGAIIGLSVSSGVIEGRARVILNMEDANLEAGDILVTSFTDPSWTPLFVSIKGLVTEVGGLMTHGAVIAREYGLPAVIGVENATKLIKDGQQIRVNGTEGYVEILEGHHHHHH”, the “soluble on expression in E. coli” value is “soluble”.

Turning to “MSLNTIIQKAKETHELSRDEIIALLKDDSINEELFKAADEVRKKYLGDEVHLRGLIEFTNICKRNCMYCGLRRDNKNLNRYRLSHEEIIDFAKKAVGYGYKTLVLQGGEDDYYTVERLVPIVKDLKALGVALTLSIGERPFEEYEALKKAGADRFLLRIETTDRELYEELDPGMSHENRIQCLKNLRKLGYEVGSGCLVGLPGQKIESLADDILFFKELDVDMNGIGPFIPNEDTPLKDAEGGQFELALKVMAIVRLLLPDINIPATTAMETLNKQGRVIALQCGANVVMPNVTEGEYRKLYALYPGKICTGDTPAHCRGCISGKIRGIGRIVSDGPGFRANGFKPKTEGHHHHHH”, the “soluble on expression in E. coli” value was “soluble”.

Regarding “MSLNTLKEVNKIIQYLNNIHNEPIGNQARVLCGKDAAKHLFLVASGADSLSIGEYEILSQIRSTIDMFKKLGFSGKYLQIFFERAIKVGRKVREETSISKGKVGIYSLAIDEAKKRFNDFYDRRILVIGAGEMAQKITSMLHNEGAKDVTIMNRTIEKAKQLALKFGYNYEKLDLDKLGNFDVAFISIYHENLRLENKWNTLIVDITVPPLFTGNNVITLEELERISNLNFKAREEELAKINKLVEDGINELLYDYKKEIYTEFMSKIMKRIETIRENEILRAYKELEKEGHHHHHH”, the “soluble on expression in E. coli” value is given as “not soluble”.

For the sequence “MSLNTVVTALPYFQERAERVASAINAEFIHYHSGLFSELYRTTQRIVAIMAIGIVIRNIAPLIHDKWTDPAVVVISPDMQYAIPVLGGHHGANDLVYLLQERCGLTPVITTATEATGREAVEVLANREHLRIVNTRSTRQANASVLTGSAKVYRLPGPGMVIAGSGVSFLVADGPYSVGIGCRLGTSADEIVHAIHSACETAGISQEDIAIYATGGIKTHESGLLDAVRTLGRNIIFLNHSDLSEVAPPSQSAASRFGLPGVAEPAALAVSVHHHLILEKQIYGNVTIAIAEEGHHHHHH”, the “soluble on expression in E. coli” value is “not soluble”.

Take “MSLPDATVVKAFLLDLQHRICAGLEQLDGQASFAADSWTRAEGGGGTSRVLTQGAVFEQAGVNFSHVTGAAMPASATAHRPELAGRSFEAMGVSLVIHPKNPYIPTTHANVRFFIAHKDGAEPVWWFGGGFDLTPYYPFEEDVREWHQSAKNLCQPFGDDVYPKYKKWCDEYFFLPHRNETRGVGGLFFDDLNQAGFDKSFDFMQAVGNGFLTAYAPIVERRKDTDYGERERDFQLYRRGRYVEFNLVYDRGTLFGLQTGGRTESILMSMPPLVRWQYAYTPAAGSPEADLYDNYLKPRDWVLEHHHHHH”: the “soluble on expression in E. coli” value is “not soluble”.

Regarding “MSLPREKVVRVWDEREVVYSPKRWRILWEKREKALKIMELLKDFDPHVYGSVARGDVRRDSDIDIVIPYRVPSYLIELALGDLIQRRRIVMATPWHLIKGHIEIDEETTVTFFLVDPTDRELEFYKWGGMLDLWGVKTKQRVPGVNKKLILIIPTDKGHIEREVVGREAEVAKILGVSVDIVEERVKVLTRRDRIGRTGIYLDEEVPDWKSFEEFLKELADRDPNIRRRVRESLEGHHHHHH”, the “soluble on expression in E. coli” value is “not soluble”.

Take “MSLQAKIKNKRVLVKFSGEALAGDNQFGIDIHVLDHIAKEIKSLVENDIEVGIVIGGGNIIRGVSAAQGGIIRRTSGDYMGMLATVINAVAMQEALEHIGLDTRVQSAIEIKEICESYIYRKAIRHLEKGRVVIFGAGTGNPFFTTDTAATLRAIEIGSDLIIKATKVDGIYDKDPNKFKDAKKLDTLSYNDALIGDIEVMDDTAISLAKDNKLPIVVCNMFKKGNLLQVIKHQQGVFSMVKEGHHHHHH”: the “soluble on expression in E. coli” value was “soluble”.

As for “MSLQDDIKEKKKLVVAVSPDYAPFEFKALVNGKDTVVGADIDLAKAIAKELGVKLELSSMSFDNVLSSLKTGKADIAISGLSYTKERAQAYDFSEAYYKTENAILIKKSDLNKYTMISSFNNKTKVAVQKGTIEEGLAKNQLKQSNITSLTSMGEAVNELKSGQVDAIDLEKPVAEGYVSQNSDLVLAKVALKTGEGDAKAVALPKDSGQLVKTVNKVIKKLKKEDKYKQFISDAVKLTGQQVDEGHHHHHH”, the “soluble on expression in E. coli” value is “soluble”.

With “MSLQEKNFSEEEIDDALSRCQAKNWQSDRRFSENYLNSRVQKGYGVGRIRQELRQLKGVSSDIIDEVLMESEIDWYEMAENLLRKKFPNYNEQQTPKMKQKIWQYMLSHGFRSDEFADLIGQNQSEWDEGHHHHHH”, the “soluble on expression in E. coli” value is listed as “soluble”.

As to “MSLQENISVTDSYSTGNAAQAMLEKLLQIYDVKMLVAQLNGVGENHWSAAILKRALANDSAWHRLSEKEFAHLQTLLPKPPEHHPHYAFRFIDLFAGIGGIRRGFESIGGQCVFTSEWNKHAVRTYKANHYCDPATHHFNEDIRDITLSHQEGVSDEAAAEHIRQHIPEHDVLLAGFPCQPFSLAGVSKKNSLGRAHGFACDTQGTLFFDVVRIIDARRPAMFVLENVKNLKSHDKGKTFRIIMQTLDELGYDVADAEDNGPDDPKIIDGKHFLPQHRERIVLVGFRRDLNLKADFTLRDISECFPAQRVTLAQLLDPMVEAKYILTPVLWKYLYRYAKKHQARGNGFGYGMVYPNNPQSVTRTLSARYYKDGAEILIDRGWDMATGEKDFDDPLNQQHRPRRLTPRECARLMGFEAPGEAKFRIPVSDTQAYRQFGNSVVVPVFAAVAKLLEPKIKQAVALRQQEAQHGRRSREGHHHHHH”, the “soluble on expression in E. coli” value is on record as “soluble”.

On to “MSLQESLQDRLAQVVELLHRHKVVEDLTHRQEGQHHDRVENLVHRQNLVELQRKLEELHPADIAHILESLPLDDRLTVWQLVKSEDDGDILLEVSDAVRETLIADMDDHEIIAATKDLDADELADLAPELPRDVVHELMESLDAQQRERVRSALSYEEDQVGALMDFEMVTIREDVSLEVVLRYLRRLKELPGHTDKLFVVDYDGVLKGVLPIKRLLVNDPDKQVLEVMATDPVTFHPDEDGYDAAQAFERYDLISAPVVDKGGKLIGRLTIDEMVDLIREESESEVLNMAGLREEEDIFASVWEGHHHHHH”, for which the “soluble on expression in E. coli” value was “soluble”.

With “MSLQFDARNMALLESLVVANVYLAPEKLQEELGISKRTLQYDVEKINKELDNIGLDGIQSVRGQGYYLLEDEKSTIKEILGNREASHKVFSASERRIRILFFLLVTDARVIIDTINECNEVSRNTSLQDIKQLKLALKQFNLELAYDRKNGNMVLGDERSIRQFFIHYCMNNEEIATADQLLDLMKINPMIKNQELFPKLDTIFEILAVTEKKIGIRYTDEVLERIGIMIFFFKERMKRNCYLNEQEEHEVESFEIAQEIYQQLQQSENFKINHAEITYLGKLLLGASRLNDDAAAEGKLDLIVEKIIAEFERLACVNFEDHRNLKKDLLLHLQPAYYRLKFQIEWINPLRTDIKQSYSDVYEITKKSLEPLEDLLGETIPEDEIAYVTILFGGYLSRKNNEGHHHHHH”, the “soluble on expression in E. coli” value is on record as “soluble”.

As to “MSLQGQIDIPLDIVGRWQADQSAYELAKTYYWAKVAHLAEHNDQLAQPTYEGAHLADISEINNAPATARRMLVVSSDLFRAQQTAHAFADLMGLDVELDPRLRERSFGEWEGMTREEICEHYADDYHSWRAHTGGETKHGVESRIHTGRRGAEAVRDIVAKHHDETMPTTLLLVGHGSWIVATVAVLLDMDPDDLNNVGAMRNAFWTRMTPHTDPRNADRPTWKLEEFNQGPAIASFADWENGPESLRAPGMPLWKPIIQEGHHHHHH”, the “soluble on expression in E. coli” value is on record as “not soluble”.

With “MSLQKMKSSRKFLEGEPNIVIRKGELQYKVMKKNKIDINQLQSLLRQAGSFSIQEVEYAILETNGMVSVLPKSDFDKPTNKDLQIPSKSVSLPITLIIDGEIVRDNLKEAGVDEQWLKQELKKKNIDKTEDVLFAEWHKNKPLYTVTYEQSKGHHHHHH”, the “soluble on expression in E. coli” value is listed as “soluble”.

With “MSLQLLLVDDEEDANEELAELLEGEGFCCFTASSVKMALHQLTAHPDIALVITDLRMPEESGIQLIRHLREHTSRQHLPVIVTSGHADMDDVSDLLRLHVLDLFRKPIYHVRLLETLNNLFPEPKIFQEGHHHHHH”, the “soluble on expression in E. coli” value is given as “soluble”.

On to “MSLQNVESELKDIRLPYKTKSLCPECLKILEAEVYEENGKVMIRKVCEEHGEFVDVYWGDAEMFKKAARFAADGHGISTPITQNTTCPFSCGLCNNHKSHTALLNIVLTNRCDLACWYCFFYARRAGYVYEPTIEQIREMVRKAKNMKPIGCNAVQLTGGEPTLRDDLIDIIRMIKEEGYDHIQLNTNGIRLAEDPDFALRVRVAGVNTVYLSFDGVDEKTNPKNHHEIPKILENCRRAQLGLVLVPTVIKGVNDHQLGDIIRFAAENIDIVRGVNFQPVSLVGSMPRKEREQFRITIPDCIKAIEEQTNGEIGREDFYPVPSVVPISRFVEALTGQPQYELTTHFACGMATYIFKDNGRLIPITRFVDVEGLFEFLNEKAEEIAKSRMKTIRAIKDIIDLRKFVDTSKAPKGFNIAKILYEVLIKHDYSTLGEFHVKSLFIGMMHFQDLYNYDIARVERCEIHYGSPDGRIIPFCTFNVIPERYRDAIHEKYGIPIEEWEKRTGRKLKDDIKRAVRRPEGHHHHHH”, for which the “soluble on expression in E. coli” value is “soluble”.
